{
  "source": "paper PMC10540051",
  "molecular_target": "purified extracellular moiety of SorCS1 (UniProt Q8WY21)",
  "sequence (Q8WY21 34-1099)": "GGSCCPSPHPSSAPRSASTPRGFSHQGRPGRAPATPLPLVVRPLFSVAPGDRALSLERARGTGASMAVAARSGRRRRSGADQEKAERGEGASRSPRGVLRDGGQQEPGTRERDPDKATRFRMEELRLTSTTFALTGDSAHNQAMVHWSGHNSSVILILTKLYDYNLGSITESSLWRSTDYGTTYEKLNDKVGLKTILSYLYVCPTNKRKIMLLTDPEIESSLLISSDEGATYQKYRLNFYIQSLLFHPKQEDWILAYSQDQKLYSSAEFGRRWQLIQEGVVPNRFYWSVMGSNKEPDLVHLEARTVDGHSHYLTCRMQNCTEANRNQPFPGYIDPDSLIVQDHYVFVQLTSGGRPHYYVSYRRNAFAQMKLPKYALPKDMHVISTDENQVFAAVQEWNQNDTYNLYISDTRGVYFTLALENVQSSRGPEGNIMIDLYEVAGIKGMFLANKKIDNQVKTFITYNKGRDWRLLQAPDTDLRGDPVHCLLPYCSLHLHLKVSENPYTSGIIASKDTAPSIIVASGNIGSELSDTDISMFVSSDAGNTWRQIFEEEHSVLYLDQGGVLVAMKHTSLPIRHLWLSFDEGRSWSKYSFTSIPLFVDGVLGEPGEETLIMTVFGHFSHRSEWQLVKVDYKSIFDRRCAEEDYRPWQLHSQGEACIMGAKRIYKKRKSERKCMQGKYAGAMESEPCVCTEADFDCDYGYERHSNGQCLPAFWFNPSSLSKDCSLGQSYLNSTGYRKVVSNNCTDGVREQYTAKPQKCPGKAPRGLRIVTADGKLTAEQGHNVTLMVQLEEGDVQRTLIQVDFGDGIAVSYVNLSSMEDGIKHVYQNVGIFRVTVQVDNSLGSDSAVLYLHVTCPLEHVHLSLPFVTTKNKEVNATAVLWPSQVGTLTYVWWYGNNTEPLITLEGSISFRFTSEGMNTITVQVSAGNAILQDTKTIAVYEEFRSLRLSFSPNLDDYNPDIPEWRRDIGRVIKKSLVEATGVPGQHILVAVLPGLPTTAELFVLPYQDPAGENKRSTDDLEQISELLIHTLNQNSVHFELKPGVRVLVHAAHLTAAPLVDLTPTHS",
  "assay": "SPR; BIAcore 3000, CM5 chip; extracellular moiety of SorCS1 immobilised at about 50 fmol/mm^2; mature BDNF (50–200 nM) injected at 5 μl/min in 10 mM Hepes, 150 mM NaCl, 1.5 mM CaCl2, 1 mM EGTA, 0.005% Tween-20, pH 7.4; Langmuir 1:1 model",
  "note": "pKd: −log10 of the molar value.",
  "data": [
    {"substance": "mature BDNF (ligand)", "values": [
      {"measurement": "pKd", "value": 7.22}
    ]}
  ]
}
